Measurements reported in patent US20240124881.

Biological target: T1, DHX36 (Mus musculus) (UniProt Q8VHK9)
T1 sequence: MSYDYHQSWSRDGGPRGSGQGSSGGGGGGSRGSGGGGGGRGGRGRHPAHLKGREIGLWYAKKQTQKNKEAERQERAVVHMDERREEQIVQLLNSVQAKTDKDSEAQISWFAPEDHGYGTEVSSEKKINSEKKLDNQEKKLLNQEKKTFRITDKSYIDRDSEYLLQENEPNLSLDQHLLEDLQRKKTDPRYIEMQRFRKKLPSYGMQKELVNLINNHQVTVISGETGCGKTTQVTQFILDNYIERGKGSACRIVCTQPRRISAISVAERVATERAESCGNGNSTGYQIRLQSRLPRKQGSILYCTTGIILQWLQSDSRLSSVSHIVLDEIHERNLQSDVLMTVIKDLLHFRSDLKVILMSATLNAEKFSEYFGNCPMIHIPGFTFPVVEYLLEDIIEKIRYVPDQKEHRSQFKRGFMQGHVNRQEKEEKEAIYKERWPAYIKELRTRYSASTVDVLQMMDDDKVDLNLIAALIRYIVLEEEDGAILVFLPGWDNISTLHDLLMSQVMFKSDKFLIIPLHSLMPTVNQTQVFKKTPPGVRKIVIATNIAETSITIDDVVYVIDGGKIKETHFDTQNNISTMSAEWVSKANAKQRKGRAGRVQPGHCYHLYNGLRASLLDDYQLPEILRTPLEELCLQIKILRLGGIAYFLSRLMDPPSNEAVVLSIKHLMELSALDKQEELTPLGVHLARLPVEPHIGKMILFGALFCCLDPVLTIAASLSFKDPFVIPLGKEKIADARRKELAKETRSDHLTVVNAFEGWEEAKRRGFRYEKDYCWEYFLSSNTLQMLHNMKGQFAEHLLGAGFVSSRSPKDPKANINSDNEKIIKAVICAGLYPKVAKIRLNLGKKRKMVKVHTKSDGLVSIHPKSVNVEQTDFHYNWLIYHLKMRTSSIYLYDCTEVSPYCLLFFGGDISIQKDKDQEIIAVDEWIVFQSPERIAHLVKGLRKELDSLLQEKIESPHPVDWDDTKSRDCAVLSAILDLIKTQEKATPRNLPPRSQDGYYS
Experiment: pulldown
Conditions: N2a lysate, mass spectrometry; threshold criterion

Chaserr Exon5-MC
binding signal (fold lower recovery than WT): > 2
